Experiments:
[1] = target: P-Selectin ligand on HL60 cells and human neutrophils (human); test: flow cytometry, staining of HL60 cells
[2] = target: E-Selectin-IgG chimera (wild type) (human) (UniProt P16581); test: capture ELISA, mAb coated
PE-1 chimera (human) = PE-1 chimera (human) (UniProt P16581); test: capture ELISA, mAb coated
[3] = target: P-Selectin-IgG chimera (human) (UniProt P16109); test: capture ELISA, mAb coated
[4] = target: P-Selectin-IgG REKDV mutant (human) (UniProt P16109); test: capture ELISA

% cells positive [1] [%] | MFI [1] [MFI] | O.D. 450 [2] [O.D. 450] | O.D. 450 (PE-1 chimera (human)) [O.D. 450] | O.D. 450 [3] [O.D. 450] | percent of control P-Selectin-IgG binding [4] [%] | Substance
97 | 416 | – | – | – | – | P-Selectin-IgG chimera (from UniProt P16109) (Fc fusion)
– | – | 0 | 0.1 | 2.8 | 70 | mAb AC 1.2 (antibody)
– | – | 0 | 1.7 | 1.3 | 70 | mAb AK-6 (CLB-thromb/6) (antibody)

Reference: patent US5593882
